The values below come from publication PMC12015307 (Nature Communications, 2025).

One data set has as its target His-SAMD9 (Homo sapiens, UniProt Q5K651 1-1589). In words: EMSA. (Mobility shift assays separate free from complexed probe on a gel.)
The data set “native gel or EMSA” deals with the molecule itself. In words: native gel or EMSA.

B1: 20-bp dsDNA (dsDNA)
DNA 1: GATAAGGACTCGTATGTACC
DNA 2: GGTACATACGAGTCCTTATC
Consider B1, for which, in the data set with His-SAMD9, the binding result is “no binding”.

B2: 15-bp dsDNA (dsDNA)
DNA 1: GATAAGGACTCGTAT
DNA 2: ATACGAGTCCTTATC
On to B2, for which the binding result in the data set with His-SAMD9 is on record as “no binding”.

B3: His-SAMD9, recombinant full-length human SAMD9 (natural protein)
chain: MAKQLNLPENTDDWTKEDVNQWLESHKIDQKHREILTEQDVNGAVLKWLKKEHLVDMGITHGPAIQIEELFKELRKTAIEDSIQTSKMGKPSKNAPKDQTVSQKERRETSKQKQKGKENPDMANPSAMSTTAKGSKSLKVELIEDKIDYTKERQPSIDLTCVSYPFDEFSNPYRYKLDFSLQPETGPGNLIDPIHEFKAFTNTATATEEDVKMKFSNEVFRFASACMNSRTNGTIHFGVKDKPHGKIVGIKVTNDTKEALINHFNLMINKYFEDHQVQQAKKCIREPRFVEVLLPNSTLSDRFVIEVDIIPQFSECQYDYFQIKMQNYNNKIWEQSKKFSLFVRDGTSSKDITKNKVDFRAFKADFKTLAESRKAAEEKFRAKTNKKEREGPKLVKLLTGNQDLLDNSYYEQYILVTNKCHPDQTKHLDFLKEIKWFAVLEFDPESNINGVVKAYKESRVANLHFPSVYVEQKTTPNETISTLNLYHQPSWIFCNGRLDLDSEKYKPFDPSSWQRERASDVRKLISFLTHEDIMPRGKFLVVFLLLSSVDDPRDPLIETFCAFYQDLKGMENILCICVHPHIFQGWKDLLEARLIKHQDEISSQCISALSLEEINGTILKLKSVTQSSKRLLPSIGLSTVLLKKEEDIMTALEIICENECEGTLLEKDKNKFLEFKASKEEDFYRGGKVSWWNFYFSSESYSSPFVKRDKYERLEAMIQNCADSSKPTSTKIIHLYHHPGCGGTTLAMHILWELRKKFRCAVLKNKTVDFSEIGEQVTSLITYGAMNRQEYVPVLLLVDDFEEQDNVYLLQYSIQTAIAKKYIRYEKPLVIILNCMRSQNPEKSARIPDSIAVIQQLSPKEQRAFELKLKEIKEQHKNFEDFYSFMIMKTNFNKEYIENVVRNILKGQNIFTKEAKLFSFLALLNSYVPDTTISLSQCEKFLGIGNKKAFWGTEKFEDKMGTYSTILIKTEVIECGNYCGVRIIHSLIAEFSLEELKKSYHLNKSQIMLDMLTENLFFDTGMGKSKFLQDMHTLLLTRHRDEHEGETGNWFSPFIEALHKDEGNEAVEAVLLESIHRFNPNAFICQALARHFYIKKKDFGNALNWAKQAKIIEPDNSYISDTLGQVYKSKIRWWIEENGGNGNISVDDLIALLDLAEHASSAFKESQQQSEDREYEVKERLYPKSKRRYDTYNIAGYQGEIEVGLYTIQILQLIPFFDNKNELSKRYMVNFVSGSSDIPGDPNNEYKLALKNYIPYLTKLKFSLKKSFDFFDEYFVLLKPRNNIKQNEEAKTRRKVAGYFKKYVDIFCLLEESQNNTGLGSKFSEPLQVERCRRNLVALKADKFSGLLEYLIKSQEDAISTMKCIVNEYTFLLEQCTVKIQSKEKLNFILANIILSCIQPTSRLVKPVEKLKDQLREVLQPIGLTYQFSEPYFLASLLFWPENQQLDQHSEQMKEYAQALKNSFKGQYKHMHRTKQPIAYFFLGKGKRLERLVHKGKIDQCFKKTPDINSLWQSGDVWKEEKVQELLLRLQGRAENNCLYIEYGINEKITIPITPAFLGQLRSGRSIEKVSFYLGFSIGGPLAYDIEIV
With B3, the binding result in “native gel or EMSA” is “binds”.

B4: 80-nt ssDNA (ssDNA)
DNA: CGCCTACATACCTCGCTCTGCTAATCCTGTTACCAGTGGCTGCTGCCAGTGGCGATAAGTCGTGTCTTACCGGGTTGGAC
Take B4: the binding result in the data set with His-SAMD9 is reported as “no binding”.
